Measurements published in patent US11932672B2, “Fermentation process” (Syngulon S.A., priority 2017, dated 2024).
Entries after “also recorded” stand apart in the source; their conditions may differ.

Assays:
Candida species = settings: cited from earlier work
[1] = tested on: fungal microbial organism; settings: cited from earlier work
bacteriocin B17 = test: Resistance to B17 conferred by plasmid-expressed immunity gene (selection on plates containing B17); type: cell-based, BL21(DE3)
Description: We have separated genes from B17 immunity structures and cloned these into vectors behind an inducible promoter (Ptac).
We have separated the genes from B17 immunity structures and cloned them into vectors behind an inducible promoter (Ptac).
We inserted the B17 McbG immunity structure gene and cloned the latter into vectors behind the weak constitutive promoter (P24). A second construct was generated with a P24 LacO hybrid promoter which is an inducible promoter repressed in the presence of lad and active in presence of IPTG.
The BL21(DE3) strain was transformed with vector pMcbG1.0 or pMcbG1.1 (see FIG. 3 or 4). After transformation, transformants were selected on plates containing B17. Isolated colonies were re-grown and the plasmid they contained was analyzed by gel electrophoresis after treatment with relevant restriction enzymes.

[2] = tested on: pathogenic Gram-positive and Gram-negative bacteria; settings: cited from earlier work
bacteriocin C7 = test: Resistance to C7 conferred by plasmid-expressed immunity gene (vector selection marker); type: cell-based; settings: gene expressed from plasmid (pBACT2.0, pBACT5.0)
Description: The vector used is pBACT2.0 (FIG. 6, SEQ ID NO: 713).
(§1) The vector used is pBACT5.0 (FIG. 5, SEQ ID NO: 712).

ColV = test: Resistance to ColV conferred by plasmid-expressed immunity gene (vector selection marker); type: cell-based; settings: gene expressed from plasmid pBACT5.0
Description: as §1

## Enterococcus faecalis peptide: Enterococcus faecalis peptide, SEQ ID NO: 1 (WLPPAGLLGRCGRWFRPWLLWLQSGAQYKWLGNLFGLGPK; listed as Enterococcus faecalis)
Candida species
  neutralizing activity against Candida species: neutralizing activity

## botrycidin AJ1316
[1]
  antifungal activities: antifungal activities

B1: McbE/F: pumps of the B17 immunity structure, construct pSyn2-McbE/F SEQ ID NO: 703 (protein, UniProt P05528 1-241; P05529 1-247, looked up)
Protein McbE: MVTLKMAIIFLMEQIRTPFSLIWTIMSPTVLFFFLHFNEIELHYGDTAWLGKQISWFVGYISFSVVLFNYCLYLVGRRESGFIATFVHNMDGRLLFIRSQLIASLIMSILYVFFFILVVLTGFQASPDYQIVMIILKSIYINAFMMVSLTFMASFRVTFQTASTIYSVLITVCMVSGIVSLKYNEGIVYWINQVNPIAIYSTILQSDQELSLMTIFFYSIMLIISIISALTFKTEPVWSSQ
Protein McbF: MTIPLLEINSLSFSYKVNLPPVFNNLSLKIEQGELIGLLGENPAGKTTLFNLIRGGVSNYEGTLKRNFSGGELVSLPQVINLSGTLRNEEVLDLICCFNKLTKKQAWTDVNHKWNDNFFIRYDKIRRKRTYTVSYGEKRWLIISLMVTLCKNARLFLLDEPTVGIDIQYRMMLWELINKITADGKTVFFSTHIFDELTRDKIPFYMLSKNSINRYSDMSDFIQSNNETTQKRHLLKKLWEQETDTWI
Bacteriocin B17; pSyn2-McbE/F under Ptac
  toxicity of expression to the strain: toxic

B2: McbG: immunity to the bacteriocin B17, nucleic acid SEQ ID NO: 699 (protein, listed as Escherichia coli)
chain: MDIIEKRITKRHLSESELSGVNYYNCIFERIQLDNFNFRDCEFEKCRFVNCSIKNLKLNFFKLIDCEFKDCLLQGVNAADIMFPCTFSLVNCDLRFVDFISLRLQKSIFLSCRFRDCLFEETDLRKSDFTGSEFNNTEFRHSDLSHCDFSMTEGLDINPEINRILSIKIPQEAGLKILKRMGVVVGG
modifications: gene (1)..(564) McbG gene
Bacteriocin B17; gene expressed from plasmid, Ptac not induced, weak P24 promoter or pBACT2.0
  resistance to B17: sufficient to give the phenotype of resistance

B3: Ent35-MccV: hybrid bacteriocin: N-terminal glycine, Enterocin CRL35, three-glycine linker, C-terminal Microcin V, SEQ ID NO: 3 (protein)
chain: GKYYGNGVSCNKKGCSVDWGRAIGIIGNNSAANLATGGAAGWKSGGGASGRDIAMAIGTLSGQFVAGGIGAAAGGVAGGAIYDYASTHKPNPAMSPSGLGGTIKQKPEGIPSEAWNYAAGRLCNWSPNNLSDVCL
modifications: Hybrid bacteriocin Ent35-MccV
[2]
  antimicrobial activity: displays antimicrobial activity

B4: C-terminal part of MccE: C-terminal portion of MccE, SEQ ID NO: 701 (amino acid SEQ ID NO: 706) (protein)
chain: FRKYDVSLTPSGIKVNDEITLLYPALKYAEELYLLINQNKINFIKSMAWPAFVNNISDSVSFIEQSMIDNQNEKALILFIKYKTKIAGVVSFNIIDHANKTAYIGYWLGANFQGKGIVTNAINKLIQEYGDSGVIKRFVIKCIVDNKKSNATALRCGFTLEGVLQKAEILNGVSYDQNIYSKVIG
modifications: C-terminal part of MccE protein
Bacteriocin C7
  resistance to bacteriocin C7: sufficient to confer resistance; also recorded: give resistance
Bacteriocin C7; listed as truncated MccE
  resistance to bacteriocin C7: give resistance

B5: MccE: immunity to the bacteriocin C7, nucleic acid SEQ ID NO: 700 (protein, listed as Escherichia coli)
chain: MAQKITPSKIVKHARELIIKGIESGDNSFVIFDVDGALERLEHYRCQLKSFFPNSSIAYSYKSNNLAQWCQIISGKGLYAEVCSVDEMNLAKRDGFNRIVFDGPLKKTSELLKAIEIGALIEVDNIDECKRLNELCKLHKLTCRIHLRLSHYYDDNLSRFGLSESEAINLLEMLISKSEYLILDGFHLHVGSNLPNAEKICKAVIQYHELILRYMPDDGTLNLGSGIPADSFSASSDNPTPCPEVFFSSIYDTIKNCFGTVCDKWNYIFEPGRHLVEDFGYFIGKVISTKNRYGVKVAQTNIGINWIPSIRNWDHSFTLFHNHNHISDDKSDEYIIAGFNCFECDCLFPSVILPSNLSDYLFSVRGCGAYDMQTGNQWTRNLYAVYTITNDVVNISRIHRRELDFRKYDVSLTPSGIKVNDEITLLYPALKYAEELYLLINQNKINFIKSMAWPAFVNNISDSVSFIEQSMIDNQNEKALILFIKYKTKIAGVVSFNIIDHANKTAYIGYWLGANFQGKGIVTNAINKLIQEYGDSGVIKRFVIKCIVDNKKSNATALRCGFTLEGVLQKAEILNGVSYDQNIYSKVIG
modifications: gene (1)..(1770) MccE gene
Bacteriocin C7
  resistance to bacteriocin C7: give resistance

B6: Cvi: immunity gene giving resistance to ColV, SEQ ID NO: 709 (protein, listed as Escherichia coli)
chain: MDRKRTKLELLFAFIINATAIYIALAIYDCVFRGKDFLSMHTFCFSALMSAICYFVGDNYYSISDKIKRRSYENSDSK
modifications: gene (1)..(237) Cvi
ColV
  resistance to ColV: give resistance
